From US20250352659A1, “SELF-STABILIZING LINKER CONJUGATES” (priority 2023, published 2025)
Like-named read-outs stand apart in the source and are kept apart here.

Columns and labels:
Assay type in all cases: physicochemical
[1] = Conjugator-antibody conjugate stability in formulation buffer (pH 5.5 20 mM histidine buffer); settings: pH 5.5, 22 °C
Description: After the conjugation and hydrolysis steps described above (see “DAR8 antibody drug conjugate/conjugator-antibody conjugate preparation”), conjugator-antibody conjugates were incubated in formulation buffer (pH 5.5 20 mM histidine buffer) or glutathione (GSH) buffer (pH 7.4 or 8.0), […] Hydrolysis status was monitored via reduced LCMS. Results are presented in Table 6, Table 7, and FIGS. 2A-23B.

[2] = Conjugator-antibody conjugate maleimide hydrolysis (ring opening) kinetics by reduced LCMS; settings: for half-life: buffer; for RO Completed Time (>95%): time for the maleimide ring to open in more than 95% of the conjugators
Description: After the conjugation step, the ADC (or conjugator-antibody conjugate) was subjected to buffer exchange into ring opening buffer (pH 6.5˜9.0, PBS, borate or tris buffer) and the solution was left at 22 or 37° C. for 1˜48 h. The maleimide ring opening process was monitored via reduced LCMS. Once the conjugated maleimide hydrolysis was completed, the resulting ADCs were buffer exchanged into basic tris pH 8.0-8.5 buffer or acidic histidine-acetate pH 5.0-6.5 buffer via dialysis.
LCMS method to monitor and determine maleimide hydrolysis. LC-MS analysis was carried out under the following measurement conditions: • LC-MS system: Vanquish Flex UHPLC and Orbitrap Exploris 240 Mass Spectrometer • Column: MAbPac™ RP, 2.1*50 mm, 4 μm, 1,500 Å, Thermo Scientific™ • Column temperature: 80° C. • Mobile phase A: 0.1% formic acid (FA) aqueous solution • Mobile phase B: Acetonitrile solution containing 0.1% formic acid (FA) • Gradient program 1: 25% B-25% B (0 min-2 min), 25% B-50% B (2 min-18 min), 50% B-90% B (18 min-18.1 min), 90% B-90% B (18.1 min-20 min), 90% B-25% B (20 min-20.1 min), 25% B-25% B (20.1 min-25 min) • Gradient program 2 • Injected sample amount: 2 μg • MS parameters: Intact and denaturing MS data were acquired in HMR mode at setting of R=15k and deconvolved using the ReSpect™ algorithm and Sliding Window integration in Thermo Scientific™ BioPharma Finder™ 4.0 software.
Results for ring opening times measured by the LCMS method described above for monitoring ring hydrolysis are presented in Table 3 as RO T1/2 (h) (i.e., the time, in hours, for 50% of the maleimide rings to open).
Conjugator-antibody conjugate maleimide hydrolysis (ring opening) kinetics are presented in FIGS. 1A-1L, Table 3 (for pH 7.0 reaction conditions, hydrolysis T1/2), and Table 5. The data in Table 5 was generated by the LCMS method described above and includes the time, in hours, for the maleimide ring to open in more than 95% of the conjugators, after antibody conjugation (“RO Completed Time (>95%) (h)”). The results for conjugator-antibody conjugate 3-1 indicate that after 24 hours, about 0% of maleimide rings were open; the results for conjugator-antibody conjugate 3-3 indicate that after 24 hours, about 28% of maleimide rings were open.

[3] = Conjugator-antibody conjugate stability in pH 7.4 and 8.0 buffer with and without GSH;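 further: conjugate hydrolysis tracked by LC-MS analysis of reduced samples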
[4] = pH 7.0, time for 50% of the maleimide rings to open, read-out: RO T1/2 (converted)

Compound | MS DAR-T = 0 h [1] | MS DAR ([2]; pH 7, time point 1 h) | RO (%) HC ([2]; pH 7, time point 1 h) [%] | RO (%) LC ([2]; pH 7, time point 1 h) [%] | RO (%) Total ([2]; pH 7, time point 1 h) [%] | MS DAR ([2]; pH 7, time point 3 h) | RO (%) HC ([2]; pH 7, time point 3 h) [%] | RO (%) LC ([2]; pH 7, time point 3 h) [%] | RO (%) Total ([2]; pH 7, time point 3 h) [%] | MS DAR ([2]; pH 7, time point 5 h) | RO (%) HC ([2]; pH 7, time point 5 h) [%] | RO (%) LC ([2]; pH 7, time point 5 h) [%] | RO (%) Total ([2]; pH 7, time point 5 h) [%] | MS DAR ([2]; pH 7, time point 7 h) | RO (%) HC ([2]; pH 7, time point 7 h) [%] | RO (%) LC ([2]; pH 7, time point 7 h) [%] | RO (%) Total ([2]; pH 7, time point 7 h) [%] | MS DAR ([2]; pH 7, time point 24 h) | RO (%) HC ([2]; pH 7, time point 24 h) [%] | RO (%) LC ([2]; pH 7, time point 24 h) [%] | also measured
CN(C)C(=O)CCOCC(N)CN1C(=O)C=CC1=O (stereo not drawn) [3-7] | 8.00 | 8.52 | 40.83 | 28.33 | 37.71 | 8 | 79.61 | 60.08 | 74.73 | 8 | 88.54 | 77.85 | 85.87 | 8 | 87.98 | 86.34 | 87.57 | 8 | 90.8 | 92.99 | MS DAR-T = 168 h ([1]; incubation 168 h): 8.00; Maleimide ring opening ratio (%) at T = 168 h ([1]; incubation 168 h): 97.99%; half-life ([2]; pH 7): 1.7 h; RO (%) Total ([2]; pH 7, time point 24 h): 91.35%; RO Completed Time (>95%) ([2]; pH 7): >24 h; MS DAR ([3]; incubation 20 h, pH 7.4, 22 °C): 8.00; MS DAR ([3]; incubation 20 h, pH 7.4, 37 °C): 8.00; MS DAR ([3]; incubation 20 h, pH 8.0, 22 °C): 8.00
CN(C)C(=O)CCOCCC(CN)N1C(=O)C=CC1=O (stereo not drawn) [3-14] | 8.00 | 8 | 46.79 | 17.39 | 39.44 | 8 | 67.87 | 32.97 | 59.15 | 8 | 85.71 | 77.46 | 83.65 | 8 | 95.45 | 72.00 | 89.59 | 8 | 99.69 | 95.83 | MS DAR-T = 168 h ([1]; incubation 168 h): 8.00; Maleimide ring opening ratio (%) at T = 168 h ([1]; incubation 168 h): 97.15%; half-life [2, 4]: 2 h; RO (%) Total ([2]; pH 7, time point 24 h): 98.73%; RO Completed Time (>95%) ([2]; pH 7): 24 h; MS DAR ([3]; incubation 24 h, pH 7.4, 22 °C): 7.98; MS DAR ([3]; incubation 24 h, pH 7.4, 37 °C): 8.00; MS DAR ([3]; incubation 24 h, pH 8.0, 22 °C): 8.00
CC(C)N(CCC(=O)N(C)C)C(=O)OCC(CN)N1C(=O)C=CC1=O (stereo not drawn) [3-9] | 8.00 | 7.94 | 66.09 | 40.06 | 59.58 | 7.94 | 99.84 | 79.93 | 94.86 | 7.96 | 99.07 | 89.36 | 96.64 | 7.96 | 100 | 93.56 | 98.39 | 7.96 | 100 | 99.17 | MS DAR-T = 168 h ([1]; incubation time printed 240 h): 8.00; Maleimide ring opening ratio (%) at T = 168 h ([1]; incubation time printed 240 h): 98.51%; half-life [2, 4]: 0.8 h; RO (%) Total ([2]; pH 7, time point 24 h): 99.79%; RO Completed Time (>95%) ([2]; pH 7): 5 h; MS DAR ([3]; incubation 20 h, pH 7.4, 22 °C): 8.00; MS DAR ([3]; incubation 20 h, pH 7.4, 37 °C): 8.00; MS DAR ([3]; incubation 20 h, pH 8.0, 22 °C): 8.00
CN(C)C(=O)CCNC(=O)OCCC(CN)N1C(=O)C=CC1=O (stereo not drawn) [3-13] | 7.84 | 8 | 43.63 | 21.50 | 38.10 | 8 | 92.96 | 64.20 | 85.77 | 8 | 100.00 | 74.30 | 93.58 | 8 | 99.68 | 93.68 | 98.18 | 8 | 100.00 | 94.99 | MS DAR-T = 168 h ([1]; incubation 168 h): 7.88; Maleimide ring opening ratio (%) at T = 168 h ([1]; incubation 168 h): 98.33%; half-life ([2]; pH 7): 1.7 h; RO (%) Total ([2]; pH 7, time point 24 h): 98.75%; RO Completed Time (>95%) ([2]; pH 7): 7 h; MS DAR ([3]; incubation 24 h, pH 7.4, 22 °C): 7.90; MS DAR ([3]; incubation 24 h, pH 7.4, 37 °C): 7.90; MS DAR ([3]; incubation 24 h, pH 8.0, 22 °C): 7.90
CN(C)C(=O)CCCCC(CN)N1C(=O)C=CC1=O (stereo not drawn) [3-10] | 8.00 | 8 | 42.51 | 21.63 | 37.29 | 8 | 76.09 | 49.46 | 69.43 | 8 | 91.86 | 64.05 | 84.91 | 8 | 98.26 | 83.47 | 94.56 | 8 | 99.52 | 100 | MS DAR-T = 168 h ([1]; incubation 168 h): 8.00; Maleimide ring opening ratio (%) at T = 168 h ([1]; incubation 168 h): 98.38%; half-life [2, 4]: 2 h; RO (%) Total ([2]; pH 7, time point 24 h): 99.64%; RO Completed Time (>95%) ([2]; pH 7): 7 h; MS DAR ([3]; incubation 20 h, pH 7.4, 22 °C): 8.00; MS DAR ([3]; incubation 20 h, pH 7.4, 37 °C): 8.00; MS DAR ([3]; incubation 20 h, pH 8.0, 22 °C): 8.00
CN(C)C(=O)CCNC(=O)NCC(CN)N1C(=O)C=CC1=O (stereo not drawn) [3-12] | 8.02 | 8 | 45.46 | 27.31 | 40.92 | 8 | 89.82 | 74.84 | 86.08 | 8 | 95.33 | 78.30 | 91.07 | 8 | 99.07 | 88.53 | 96.44 | 8 | 99.64 | 95.87 | MS DAR-T = 168 h ([1]; incubation 168 h): 8.02; Maleimide ring opening ratio (%) at T = 168 h ([1]; incubation 168 h): 97.83%; half-life [2, 4]: 1.6 h; RO (%) Total ([2]; pH 7, time point 24 h): 98.70%; RO Completed Time (>95%) ([2]; pH 7): 7 h; MS DAR ([3]; incubation 24 h, pH 7.4, 22 °C): 8.00; MS DAR ([3]; incubation 24 h, pH 7.4, 37 °C): 8.00; MS DAR ([3]; incubation 24 h, pH 8.0, 22 °C): 8.00
